These results are taken from paper PMC5327412, “Characterization of the CD177 interaction with the ANCA antigen proteinase 3” (Scientific Reports, 2017).

The test addresses T1, recombinant CD177 (UniProt Q8N6Q3 22-408).
T1 construct: CD177, GPI-anchored neutrophil membrane receptor; recombinant soluble form that lacks the C-terminal GPI-anchor domain; secreted via an N-terminal Ig1 secretion signal peptide; Made from plasmid pTT5; also called rCD177; not shown: Fc (human Ig1), C-terminal, cleaved
T1 sequence (looked up): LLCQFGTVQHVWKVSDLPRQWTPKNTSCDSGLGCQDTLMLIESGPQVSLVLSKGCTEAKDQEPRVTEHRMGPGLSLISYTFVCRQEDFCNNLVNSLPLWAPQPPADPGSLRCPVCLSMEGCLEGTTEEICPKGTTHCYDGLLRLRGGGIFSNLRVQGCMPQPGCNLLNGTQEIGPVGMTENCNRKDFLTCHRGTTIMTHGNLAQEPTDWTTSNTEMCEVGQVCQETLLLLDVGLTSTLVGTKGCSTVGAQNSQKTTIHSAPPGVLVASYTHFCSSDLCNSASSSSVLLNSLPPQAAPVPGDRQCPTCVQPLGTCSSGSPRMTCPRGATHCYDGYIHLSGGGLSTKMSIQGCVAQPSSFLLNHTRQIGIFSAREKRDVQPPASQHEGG
Description: SPR; CD177 immobilised on a GLH sensor chip by standard amine chemistry, PR3 as soluble analyte; ProteOn XPR36. On the technique in general: Surface plasmon resonance follows binding to a sensor surface in real time, without labels.

Read-outs that look alike come from different tables or passages of the source.

As a reminder, the Kd is the constant that tells how readily two partners part at equilibrium. As for “monomeric PR3 hydrophobic patch mutant (Ile217Ala, Trp218Ala) (enzyme)”, the Kd came to 57 nM.

Turning to recombinant PR3 (enzyme), the Kd came to 4.1 nM.

B1: neutrophil-derived PR3 (enzyme, UniProt P24158 28-248, looked up)
chain: IVGGHEAQPHSRPYMASLQMRGNPGSHFCGGTLIHPSFVLTAAHCLRDIPQRLVNVVLGAHNVRTQEPTQQHFSVAQVFLNNYDAENKLNDVLLIQLSSPANLSASVATVQLPQQDQPVPHGTQCLAMGWGRVGAHDPPAQVLQELNVTVVTFFCRPHNICTFVPRRKAGICFGDSGGPLICDGIIQGIDSFVIWGCATRLFPDFFTRVALYVDWIRSTLR
notes: Proteinase 3 (PR3), neutrophil serine protease, purified from neutrophils, proteolytically active; also called nPR3; proteinase 3; source: bought: Athens Research&Technology; neutrophil-derived
On to B1, for which the Kd (both partners purified) worked out at 4.1 nM.
